Earlier results in paper PMC3150215.
Like-named read-outs stand apart in the source and are kept apart here.

Assays:
[1] = target: Capping protein (Mus musculus) (UniProt P47753)
[2] = target: Capping protein (Mus musculus) (UniProt P47753); remark: listed apart in the source

Row | Substance | Kd [1] [nM] | Kd [2] [nM]
1 | CARMIL CBR115 CBR115 (from UniProt Q6EDY6) | 1.5 | –
2 | CD2AP 474-513 (from UniProt Q9Y5K6) | – | 6
